Each sequence was assayed on Saccharomyces cerevisiae (assay: transcriptional activation domain activity (GFP:mCherry ratio, weighted mean of sorted bins, harmonized to initial dataset scale) (arbitrary fluorescence ratio units); higher = stronger transcriptional activation). Settings: beta-estradiol 1 µM; induction time 4 h.
Procedure, shortened: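 Each value is an activation activity: the read-weighted mean of bin median fluorescence, averaged across barcodes, then mapped linearly to the initial dataset scale. The tiles, fused to an estradiol-inducible synthetic transcription factor, sat at the yeast URA3 locus in GFP-reporter diploids. Cells spent 4 hours at 30 °C in SC with 1 uM beta-estradiol before sorting into 8 GFP:mCherry bins, and tiles below 50 reads were removed.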

| Sequence | transcriptional activation domain activity |
| --- | --- |
| VYILVSYFLLGPRCLILIASTFLLSYHSSWSIVTRRVLWRFKVVRLIFFYLTG | 61700 |
| MSTAGHSRQPDHATVPARSFGGCSTCRRRHIKCDEGRPSCSACRDSGLACGGY | 53000 |
| LLICSVVALVTCLAFLTNLTSMVPNFVLACLPLTAFLIFGTHSDLLRVWCFWW | 28700 |
| RWSYLRTSEMILTFFYKNIMWTLVLFWYQLFCGFSGTMMFDYSYITLYNLVFT | 63200 |
| FLARLESLHRALGLYLWFSYRYPNIIISQALAFHAKSMLEAKIDDLLQKMSFD | 44300 |
| ERQGRGQREERRREDHSRTRVPQRQGQEQREERRREDQYSRQEQQSQGLGQRK | 42100 |
| KKEPVYDSEGNEVKPTPRKRVKKEPATEEDGSESKSASKKRVKKEADAEGDSS | 17100 |
| RRARAHAGMRTRARGGQRAEGVGGVQKARRQTAQGARGACRGREGRRAAGGRL | 8470 |
| AFAGVLLCYFFILFYFIFFFLFFSWLLLLVEYIVWDNLINLLFLVSCFSFFFA | 55300 |
| FLDRGRVGFFFFFLLVSFYSSSWKLLFLLYTHFFVFSGLLALYYFLFWSVLFI | 68800 |
| MDAVSDAARESPDSERGAESEAKRRKVRKGTRSCWECKRRKIRCSFSTASDSV | 38000 |
| PTGRSSTPTSASSTRARRTRGSASARSSRAAGGGSCSSTCRSPPGRVPRTSVS | 36800 |
| AYLTFCIYLCFWSYLNLRLAGLFFFSLFIILFPPRVSWLHYFSFLFYSGVFCF | 51000 |
| AGRWQYATLFFSGVSGGATLALSLCVITHPSLLTRIVVICIFVTLISAFTILP | 27900 |
| MGGGCLYIILFLLRTTLGVMWVFFCLLFYLFLFWFSKSLIFFSLFLVLIPSYF | 36500 |
| LRLLVAWLIPQLEMWLHTNMGVRFLLIEYTPEHLGTVLALREFIGDHMFKVAG | 49000 |
| RGGRRGRGERKREKEEKKRRKRKGKEKRATTEEGGRARRKEKKAVCGRRWSGG | 46100 |
| MRQRLGGQLFSKSFFYALLVTSTWSSKLVYLSPHFTSLPPLLILLYAPTFLLL | 60600 |
| AYTDEDDAHQIRRKQLSMVLRGMPSVFDSLTHARVYLELIFRQMEHYLYVAAT | 42200 |
| LKIKLLVAWLWLLDTIHTCLLCSSNWRSLIVHYGDRRALDFIPTTTALGILFT | 34100 |
| RLAGGLRGLTGLEKEELRKRGWGLGWWMMRGAFYENITKAWIHTVTRKLKNKP | 47300 |

| Sequence | transcriptional activation domain activity |
| --- | --- |
| KFCAITLAGTWGKVVLYSLAMTRVVSYCYNIYYMDSVFSRTIRPGIGICFTSL | 67100 |
| CKVHAWLVGLGDVPPREMLQGLGRSLLVRSVVLSCHCLGRMSFVICIHAVHIM | 42700 |
| FDIITASLENSYQTTLTEKGSQVMEKNMDQLDSVHNLNDDDLQQLLEDLGNID | 111000 |
| ILIIVFFYVHFLGVLIFLVGGYYHTKVAHGSYWIWPSFVFWAFDRFVRVVRLV | 48500 |
| KDSDDESEDSDAKSKKRKKRKRVVESDEGSGSEAESKKRKKKRKAEDSDVSGS | 22600 |
| RVLNLTIHCAIWVRLYASLAWQKFADTLVHLELQFFTSSVLRAIPQNVCCRHL | 38100 |
| SCLMWVVSCALFMCGQLVFFDLNYYWNLTLVSYFLELSIVLVLMFMKLWLSKR | 30400 |
| MVGLVGFWVLFLFFLCPFLFSCPLPLPPLRPSLYIFQISYGSFFFLLFFSIFF | 62300 |
| IMYSVIVSLLLFLFLLVLLRRYLVSLYYFTSLFLSPRLCARIAIVFRICLLYI | 50300 |
| CDAPKLGLSGATLFEMIRFLDLYQGDWDSFLSQILVHAQIIRVLREALLILTV | 65300 |
| RKLLIALDMRLQNIRSNWKEHHSLTVVIQLTLRLLSLGLSSEVVAGCLDLLKS | 64700 |
| AGAPVFGLPPFRWWRFNVFWMFWCFFWNLQGVINLVTLDINGYLSIFIPFITI | 58700 |
| RGGGGGGKRGSRAGSGIAADSKEKGNDGEVKLKDKEKGRSKEKKSGKEGGGAA | 35900 |
| VLPVRFPKDCDQVFIACAVDCAELWRPGWKANIWVISHRRMIVSTVHIRHLSR | 48200 |
| MVDSRMLGETETGLFLSFIFFRIIFILVLPYLASCSKYVHLLFLYCFLLLRFF | 54600 |
| LDHRVGIEKLYVSLFFLSTALLIIIEQYFPSLKSRGVLNFLWKLLYLPLLRLV | 43000 |
| MYNTVLAWYCFIFAHVYSFLHCCFYYWFFLAFWLFGLLTYLSFVVGGVFFMPR | 53300 |
| MFLPFSLSINHLPSLLLQPFILSLILLLFFLCLLHRLFPFLLQFFPFLFQFLS | 50100 |
| MLVICLLDLLLSIMRCKRNLIQFILVCTKDGFCVGLMTKSYKRSLLVKRLFCT | 39300 |
| MFCLRSWIPVLFFLLRTNASPVYLILSISATYFLNRPCVYCSLLLFILVVALF | 57600 |
| AKGEAEPKAKAKGKGKAKAQAESEGEEEEEEEEEEEVKGKGKSRAKSKPKAKA | 53900 |

| Sequence | transcriptional activation domain activity |
| --- | --- |
| PEPVSEEPKAESSRTATAPPSLARRAASYFVSSFRGRTLHGTKIDVPDGYTGL | 49000 |
| TLHIVLVSYGMYFYLILNFANIAALLSPSWAFLVQVYLTCISDTVVRSVFFSR | 69200 |
| FISVYVPNFFVAFCLEMSQFFYLYQFMVMWLYYYWNYYVIGVIDTAIILVSAI | 47100 |
| MGVLSFRFLFWSFFFLSVMFLFLFFVFLLGYWFWFWFWLLVWLLVGFCCLVFF | 38500 |
| RFISTRSFLFIFLFDSFFFFSFFFLSLFFFFISFFSFSSFFFFIFTLYLSRAL | 28300 |
| SVSRLHAKIEYEEENERFVLVVLGRNGAWVDGIWSGSGSRVPLGPRSQIQIAT | 31600 |
| LHGFDWSEEDDMSDGLPFLKTDPNNNGFFGDGSLLCILRSIGFKPENYTNSNV | 50300 |
| VGLFGMGQKRISALIGVLFAFTLGCVLILRWRLPWYRNLIQTLLYHLFVIYLH | 52600 |
| MIVLCASFFYILSSLSLFFFFLTLPIMHFLPFSRLFIFSCFLFPLYLFTSFFL | 31000 |
| MDSRPAKRPRKTETEDTLDDTDKKPHKKPPLSCAECRRLKLKVATLAASVIVY | 69000 |
| EAEDGAEKPKRGRKRKEPPAEAEANGDEPAPAAEEEEAPPAKKTKPSSSPLAK | 27800 |
| MYCACGQDGKSPFVMRCVLCFGFVFLFLFLLFFSSLLISLLFIFSHCSMLLPI | 23000 |
| KNDDRGDRGERRSRSRRRRHSVTGVDRESRAESKHRDPKHRKHRIAEAGAASA | 41500 |
| TNPDKIRLIPGFKYLQLVLGRDQYCREILAMMARMGFLMPKTMYSTLLRLWLL | 65200 |
| MDELGKIAFGSIPPPQAEPNLIGDNFGIFVDDMFTAYEDPMAHWSFLFEDLFP | 151000 |
| QCGLICTLYFANRYGIILGSLPFALQPFIHWTSKGWCLIFRIYLLIYASFVLL | 43200 |
| LELNWAIGGGDLKHRMNKLREFLEEGRRVEVLLGPKKRGRKATPEEAQGVVKA | 34200 |
| MANHQLYTDWLYLWWIAYTNKMAGHVYIILKESLKNIPLIGWGAQFYNFIFLA | 54800 |
| NVLDASSVIARRAVETGGRNVPRGAAGGGAPRNRARGFELEIGNATLLGRRHN | 29200 |
| IARSRNLPLDVVMYLGSDEENDMMVDTLLLLHDYISKVRSLILRVNFMTLSCA | 66700 |
| LTPFSPPHFPLFLPSILFSFPPPLSSHFLLFPYALSPLLLLLFPPLCSSQFTP | 45700 |

| Sequence | transcriptional activation domain activity |
| --- | --- |
| MFCLRSWIPVLFFLLRTHASPIYLVLFISATYFLNRPCVYCSLLLFILVVALF | 61100 |
| MFMGTLWLVIFHYGWAFFLDYCVWYFMISLCFWCEVCLPVLLPAFHVCCLLWC | 52400 |
| SSSEDESDEEDEEGLGSDVEIHDQAEPAEDVPAGEVSRRFAVVNLDWDHVRAV | 32200 |
| DSKDKREKFRSRMVVLKSRLLFGVCDPYGVLEEGEVYVRVSVPRMGASTLKNT | 67500 |
| SVVKFIEEYQAYFNTSYEVFLLLYISFILVTTLWCTSLIIYRILTVHLIEVLV | 29800 |
| ESASTNTSSALNCQSYTNNQDIMDILFQVTSGSVWDEFFVRSGNGNEGESSYD | 86700 |
| MEFPTPTCFLSFFSFFFHIVFVAYCVAYFSLSRFLFVPSFFFLFLLSYFRLLQ | 67500 |
| DELSRQKLGPDLHTILANLPGDLFGIYSRFLRPIHPRDFIHVARFLRWLLYAW | 69500 |
| LSDDEEEEGGKGREGEGRERKRRGREGKRKGGEERGRGRGREGEREGGEGEGG | 27300 |
| PKRKRAAPKKKDAEDNTEEKPKRGRKKKEENGDAEEKPKKAPVRKARATKKVE | < 6570 |
| PHHKWLVPTPFASHAFHPVDGYAQSVPYHLFVFLFPMHRLLYLILFVAVNFWS | 48000 |
| MLRLYHLMWDSGDYIYTIIGGWLPLPRDLMYVPFPGFYLKYMIFPTPLTLSVL | 43600 |
| DAAAEKSGNDVSEKSSGPRAKRRKVDPELDTVDEEPKKQRSKKRVKVSVPNGI | 45800 |
| EAAAAAKRKRRKATSDSPEQARRGHVARKTAVACNFCRGRKLRCNGAKPSCSN | 22800 |
| PGAAGGEKEKKKRQRTKNKKVDAAAPAEDAPAAAAEKLAKLEVAPADDDAAAK | 25900 |
| RAGASPEEASAQSGGSRSKEAEESGSSPTGGEVGKSGGKNSSSSKSVEEKSKD | 29700 |
| AKQGEDDAEKSKRGRKRKESETLEANGEEAGDDAEPAAKKAKPASKPASKAAA | 30100 |
| DPEEVQGGKQRAEGNQGGGGRQGRRGPRGAEGQDHPGVQRPHRRPRRGHQAHL | 33200 |
| IMYIICLTIAPSFLCGVLYVSLSRFIAALGHQYSLVPPWLISWVFIFGDFLSL | 62600 |
| VCFMGVLIGLLPGTWLCYGSDVCVKGLSSSIISMQLGLLGSLLLILKLVIGVA | 61700 |

— the supplement of paper PMC12636428
